Laboratory results taken from patent publication US20240392024A1.

Molecular target: human TNFR2 on the cell membrane (human) (UniProt P20333)
Test: flow cytometry on human PBMC, CD3+ T cells

human TNFR2 on the cell membrane (human), sequence (P20333 23-461): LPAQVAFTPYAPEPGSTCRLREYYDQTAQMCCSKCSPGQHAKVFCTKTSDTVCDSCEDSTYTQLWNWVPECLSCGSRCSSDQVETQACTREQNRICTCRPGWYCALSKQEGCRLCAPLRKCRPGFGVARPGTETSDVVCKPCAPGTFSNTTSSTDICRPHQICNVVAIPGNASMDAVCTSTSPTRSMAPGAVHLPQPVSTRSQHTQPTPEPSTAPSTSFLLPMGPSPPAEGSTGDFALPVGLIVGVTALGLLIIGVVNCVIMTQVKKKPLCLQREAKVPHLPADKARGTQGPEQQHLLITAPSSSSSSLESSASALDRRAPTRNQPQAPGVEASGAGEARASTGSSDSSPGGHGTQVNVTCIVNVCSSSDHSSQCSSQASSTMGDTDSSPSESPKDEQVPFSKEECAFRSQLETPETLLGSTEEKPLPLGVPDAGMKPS

In the case of Isotype Ctrl (antibody), the percent of cells in the upper right quadrant (Q1-UR, CD3+ and anti-human IgG Fc+) was 5.48%.
